Results from patent WO2014196658A1 (dated 2014).

Tests used:
[1] = target: T1, human aquaporin 4 (hAQP4) M23 isoform (human, UniProt P55087 1-323); test: ELISA on plates coated with budded baculovirus expressing human AQP4 M23
[2] = target: T1, human aquaporin 4 (hAQP4) M23 isoform; test: cell ELISA on live CHO cells expressing hAQP4 M23, 37 °C 1 h, 4-parameter logistic fit

T1 sequence (P55087 whole entry, canonical isoform): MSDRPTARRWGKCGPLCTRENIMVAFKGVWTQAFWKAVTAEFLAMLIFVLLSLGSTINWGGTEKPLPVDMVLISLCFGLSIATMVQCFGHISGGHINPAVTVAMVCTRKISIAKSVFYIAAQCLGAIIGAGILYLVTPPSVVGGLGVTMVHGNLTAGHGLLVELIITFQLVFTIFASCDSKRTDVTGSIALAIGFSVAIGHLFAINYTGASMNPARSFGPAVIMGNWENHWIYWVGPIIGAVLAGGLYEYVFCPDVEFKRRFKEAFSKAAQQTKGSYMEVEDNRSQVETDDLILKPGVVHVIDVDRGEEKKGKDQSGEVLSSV

Binder	EC50 [1] [pM]	EC50 [2] [pM]
anti-aquaporin 4 monoclonal antibody produced by hybridoma clone C9401 (antibody, V domains shown, also called C9401 antibody; original antibody (C9401)) VH: QVQLQQSGPELVKPGASVRISCKASGYTFTNYYIHWVKQRPGQGLEWIGWIYPGNVNTKKNEKFKGKATLTADKSSSTAYMQLSSLTSEDSAVYFCARGVPYAFWGQGTLVTVSA VL: DIVLTQSPASLAVSLGQRATISCRASKSVDSYGNSFMHWYQQKPGQPPKLLIYRASNLESGIPARFSGSGSRTDFTLTINPVEADDVATYYCQQSNEDPPTFGGGTKLEIKR	166	162
anti-aquaporin 4 monoclonal antibody produced by hybridoma clone D12092 (antibody, V domains shown, Mouse antibody from a hybridoma; also called D12092 antibody) VH: QVQLKESGPGLVAPSQSLSITCTVSGFSLTRYGVHWVRQPPGKGLEWLVVIWSDGSTTYNSALKSRLSISKDNSKSQVFLKMNSLQTDDTAIYYCARGPPFAYWGQGTLVTVST VL: DIVLTQSPASLAVSLGQRATISCRASKSVDSYGNSFMHWYQQKPGQPPKLLIYRASNLESGIPARFSGSGSRTDFTLTINPVEADAVATYYCQQSYEDPPTFGAGTKLEIKR		116
anti-aquaporin 4 monoclonal antibody produced by hybridoma clones D15107 and D15129 (same antibody) (antibody, V domains shown, Mouse antibody from hybridomas; They are therefore one molecule here, and the rows keep the printed label; also called D15107 (D15129); D15107/D15129) VH: QVQLKESGPGLVAPSQSLSITCTVSGFSLTSYGVHWVRQPPGKGLEWLGVIWAGRRTNYNSALMSRLSISKDNSKSQVFLKMNSLQTDDTAMYYCARGDGIFPYWGQGTLVTVSA VL: DIVLTQSPGSLAVSLGQRATISCRASESVDSYGNSFMHWYQQKSGQPPKLLIYRASNLESGIPARFSGSGSRTDFTLTINPVEADDVATYYCQQSNEDPFTFGSGTKLEIKR		150
